Test results from publication PMC7192616.

Assays:
Experiment in all cases: ITC
[1] = target: T1, mRBM20(513-621) (Mus musculus, UniProt Q3UQS8 513-621)
T1 sequence: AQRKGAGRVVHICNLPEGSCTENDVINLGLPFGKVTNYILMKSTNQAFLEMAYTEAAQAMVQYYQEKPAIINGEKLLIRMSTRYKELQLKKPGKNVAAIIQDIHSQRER

[2] = target: T2, mRBM20(513-609) delta-alpha3 (Mus musculus, UniProt Q3UQS8 513-609)
T2 sequence: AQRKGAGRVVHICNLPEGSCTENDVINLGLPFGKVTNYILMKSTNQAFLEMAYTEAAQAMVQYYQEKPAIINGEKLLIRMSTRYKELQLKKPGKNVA

[3] = target: T3, mRBM20(513-621) N526A (Mus musculus, UniProt Q3UQS8 513-621, N526A)
T3 sequence: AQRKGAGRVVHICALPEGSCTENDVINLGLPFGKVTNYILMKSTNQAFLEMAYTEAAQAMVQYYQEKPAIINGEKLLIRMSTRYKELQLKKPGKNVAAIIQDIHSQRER

[4] = target: T4, mRBM20(513-621) Q558A (Mus musculus, UniProt Q3UQS8 513-621, Q558A)
T4 sequence: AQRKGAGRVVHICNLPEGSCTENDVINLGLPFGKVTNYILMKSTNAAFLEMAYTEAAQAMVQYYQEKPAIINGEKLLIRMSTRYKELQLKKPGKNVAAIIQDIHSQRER

[5] = target: T5, mRBM20(513-649) +RS (Mus musculus, UniProt Q3UQS8 513-649)
T5 sequence: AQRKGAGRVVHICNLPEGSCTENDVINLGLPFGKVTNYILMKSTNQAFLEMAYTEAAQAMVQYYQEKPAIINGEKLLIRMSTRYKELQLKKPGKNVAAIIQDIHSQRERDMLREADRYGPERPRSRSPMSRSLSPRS

[6] = target: T6, mRBM20(513-621) R595M (Mus musculus, UniProt Q3UQS8 513-621, R595M)
T6 sequence: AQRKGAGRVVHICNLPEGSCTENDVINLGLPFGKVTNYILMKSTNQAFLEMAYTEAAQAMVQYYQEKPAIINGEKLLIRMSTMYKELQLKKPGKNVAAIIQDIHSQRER

[7] = target: T7, mRBM20(513-621) H523A (Mus musculus, UniProt Q3UQS8 513-621, H523A)
T7 sequence: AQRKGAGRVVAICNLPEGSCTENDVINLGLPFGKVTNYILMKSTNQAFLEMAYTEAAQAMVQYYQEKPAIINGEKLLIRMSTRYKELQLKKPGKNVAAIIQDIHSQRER

[8] = target: T8, mRBM20(513-621) Q577A (Mus musculus, UniProt Q3UQS8 513-621, Q577A)
T8 sequence: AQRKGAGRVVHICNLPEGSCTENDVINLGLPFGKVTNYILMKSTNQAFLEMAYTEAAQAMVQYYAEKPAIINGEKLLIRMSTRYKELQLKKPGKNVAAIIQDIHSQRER

[9] = target: T9, mRBM20(513-621) Y596A (Mus musculus, UniProt Q3UQS8 513-621, Y596A)
T9 sequence: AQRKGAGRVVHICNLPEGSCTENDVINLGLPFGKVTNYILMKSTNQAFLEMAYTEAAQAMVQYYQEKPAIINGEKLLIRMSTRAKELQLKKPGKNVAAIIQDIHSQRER

[10] = target: T10, mRBM20(513-621) F560A (Mus musculus, UniProt Q3UQS8 513-621, F560A)
T10 sequence: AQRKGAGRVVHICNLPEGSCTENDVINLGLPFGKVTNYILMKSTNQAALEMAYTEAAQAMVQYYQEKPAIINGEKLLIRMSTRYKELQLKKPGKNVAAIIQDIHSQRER

[11] = target: T11, mRBM20(513-621) V537I (Mus musculus, UniProt Q3UQS8 513-621, V537I)
T11 sequence: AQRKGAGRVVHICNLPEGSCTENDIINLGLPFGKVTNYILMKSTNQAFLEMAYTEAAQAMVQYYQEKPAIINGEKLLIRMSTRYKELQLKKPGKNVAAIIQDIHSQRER

[12] = target: T12, mRBM20(513-621) R591M (Mus musculus, UniProt Q3UQS8 513-621, R591M)
T12 sequence: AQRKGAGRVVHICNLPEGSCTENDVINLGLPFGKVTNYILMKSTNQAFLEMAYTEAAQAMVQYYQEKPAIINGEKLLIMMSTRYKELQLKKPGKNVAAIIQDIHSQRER

GUCUUA (ssRNA) gave a Kd [1] of 4 ± 0.1 µM.

For ACCUUA (ssRNA), the Kd [1] was 13 ± 2 µM.

In the case of GGGACCUGGUCUUUCCAGGUCCC (structured_RNA) [vIRES-SL], the Kd [1] is reported as 8 ± 1 µM.

AUCUCA (ssRNA) showed a Kd [1] of 95 ± 1 µM.

For AUCUUG (ssRNA), the Kd [1] was 4.8 ± 0.1 µM.

In the case of AUUUUA (ssRNA), the Kd [1] is reported as 140 ± 30 µM.

AUCCUA (ssRNA) showed a Kd [1] of 210 ± 3 µM.

With AUCUUA (ssRNA) the Kd [2] was 43 ± 1 µM, the Kd [3] was 9 ± 1 µM and the Kd [4] was 3.4 ± 0.7 µM. For the same binder, the Kd [5] was 4.3 ± 0.4 µM, the Kd [6] was 29.3 ± 0.3 µM and the Kd [1] was 5.7 ± 0.2 µM. It also gave a Kd [7] of 67 ± 12 µM, a Kd [8] of 6.6 ± 0.8 µM and a Kd [9] of 74 ± 13 µM. For the same binder, the Kd [10] was 156 ± 6 µM, the Kd [11] was 10.3 ± 0.7 µM and the Kd [12] was 12.4 ± 0.6 µM.
